Results on two molecules are retold here after PMC2248737.

In one data set the target is T1, ttRecR (Thermus thermophilus HB8, UniProt Q5SHY0 1-194).
T1 sequence: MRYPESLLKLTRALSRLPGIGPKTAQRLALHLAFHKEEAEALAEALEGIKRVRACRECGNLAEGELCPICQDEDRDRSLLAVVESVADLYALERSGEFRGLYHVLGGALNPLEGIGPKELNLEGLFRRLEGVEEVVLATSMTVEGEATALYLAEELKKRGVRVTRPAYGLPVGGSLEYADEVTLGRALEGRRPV
The data set is described as follows: EMSA.

Another data set deals with T2, ttSSB (Thermus thermophilus HB8, UniProt Q5SLP9 1-263).
T2 sequence: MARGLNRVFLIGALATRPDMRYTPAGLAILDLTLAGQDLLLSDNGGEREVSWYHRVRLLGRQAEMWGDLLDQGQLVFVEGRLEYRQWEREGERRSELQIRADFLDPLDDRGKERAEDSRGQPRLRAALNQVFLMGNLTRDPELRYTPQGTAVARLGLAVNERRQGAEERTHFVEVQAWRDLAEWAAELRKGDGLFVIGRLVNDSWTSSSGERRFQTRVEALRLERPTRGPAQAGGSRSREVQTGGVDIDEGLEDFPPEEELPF
The data set is described as follows: pull-down.

B1: 66-mer ssDNA (ssDNA)
DNA: CTTATTAAAACGGCAACTCCTCCTCCGGCGGAAAGTCTTCCAAGCCTTCGTCAATGTCCACCCCAC
For the molecule B1, in the data set with ttRecR, the binding result is listed as “no binding”.

B2: 60-mer ssDNA (ssDNA)
DNA: GCCAAGCTTGCATGCCTGCAGGTCGACTCTAGAGGATCCCCGGGTACCGAGCTCGAATTC
In the case of B2, the binding result with ttSSB is reported as “binds”.
